Results published in article PMC3061879, “Crystal Structure of a Coiled-Coil Domain from Human ROCK I” (PLoS ONE, 2011).

B1: ROCK coiled-coil domain (ROCK-CC, residues 535–700) of human ROCK I (domain or fragment, UniProt Q13464 535-700, looked up)
chain: LANEKLSQLQKQLEEANDLLRTESDTAVRLRKSHTEMSKSISQLESLNRELQERNRILENSKSQTDKDYYQLQAILEAERRDRGHDSEMIGDLQARITSLQEEVKHLKHNLEKVEGERKEAQDMLNHSEKEKNNLEIDLNYKLKSLQQRLEQEVNEHKVTKARLTD
modifications: selenomethionine (SeMet) substituted protein in the crystals used for the structure
notes: Rho-associated kinase ROCK I (p160 ROCK), human, residues 535-700 of the central coiled-coil domain; The model holds residues 542–693 (A), 541–692 (B), 535–692 (C), 535–693 (D); also called ROCK (535–700); p160 ROCK (535–700); source: E. coli Rosetta2 (DE3), purified (Ni-NTA, TEV cleavage, cation exchange HiTrap SP); not shown: 6xHistidine-TEV, N-terminal, cleaved
B2: ROCK (535–704), coiled-coil fragment of human ROCK I (domain or fragment, UniProt Q13464 535-704, looked up)
chain: LANEKLSQLQKQLEEANDLLRTESDTAVRLRKSHTEMSKSISQLESLNRELQERNRILENSKSQTDKDYYQLQAILEAERRDRGHDSEMIGDLQARITSLQEEVKHLKHNLEKVEGERKEAQDMLNHSEKEKNNLEIDLNYKLKSLQQRLEQEVNEHKVTKARLTDKHQS
notes: Rho-associated kinase ROCK I (p160 ROCK), human, residues 535-704 of the central coiled-coil domain; The purification is described only for ROCK (535–700); also called ROCK-CC (as called in the text and legend title of the SEC-MALS experiment); source: E. coli Rosetta2 (DE3), purified

What was measured:
[1] = biological target: the molecule itself; assay: crystal structure; SeMet ROCK (535–700), space group P4(3)2(1)2; 13% MPD, 100 mM NaCl, 100 mM sodium acetate pH 4.9, 10 mM DTT, 5% glycerol, 10 mM spermidine; SAD phasing; four molecules (2 dimers) per asymmetric unit
[2] = biological target: the molecule itself; assay: SEC-MALS; Superdex 200 in 20 mM Hepes pH 7.5, 150 mM NaCl, 2 mM TCEP; Wyatt miniDAWN TREOS three-angle light scattering detector and Optilab-rEX refractive index detector

| Protein | binding result [1] | stoichiometry N [2] |
| --- | --- | --- |
| B1 | binds | – |
| B2 | – | 2 |
